Assay results: patent publication US20080051336A1 (Janssen / Centocor, published 2008)
Like-named read-outs stand apart in the source and are kept apart here. Ends that are not written are not given here.

Legend:
human GPCR135 [1] = biological target: T1, human GPCR135 (human, UniProt Q9NSD7 1-469); experiment: cell-based or functional assay
T1 sequence: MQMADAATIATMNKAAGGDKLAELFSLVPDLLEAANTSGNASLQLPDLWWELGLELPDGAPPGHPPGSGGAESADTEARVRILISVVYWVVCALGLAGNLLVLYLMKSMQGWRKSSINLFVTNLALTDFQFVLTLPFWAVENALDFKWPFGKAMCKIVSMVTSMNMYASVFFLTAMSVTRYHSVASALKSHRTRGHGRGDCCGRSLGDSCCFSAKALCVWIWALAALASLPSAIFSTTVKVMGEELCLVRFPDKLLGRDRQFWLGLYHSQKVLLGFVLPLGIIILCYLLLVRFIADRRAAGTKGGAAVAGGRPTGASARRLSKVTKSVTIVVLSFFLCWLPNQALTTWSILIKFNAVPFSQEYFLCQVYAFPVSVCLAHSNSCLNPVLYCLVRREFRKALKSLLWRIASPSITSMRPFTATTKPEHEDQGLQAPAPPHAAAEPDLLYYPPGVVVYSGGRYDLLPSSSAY

human GPCR142 [2] = biological target: T2, human GPCR142 (human, UniProt Q8TDU9 1-374); experiment: cell-based or functional assay
T2 sequence (Q8TDU9 whole entry L329S): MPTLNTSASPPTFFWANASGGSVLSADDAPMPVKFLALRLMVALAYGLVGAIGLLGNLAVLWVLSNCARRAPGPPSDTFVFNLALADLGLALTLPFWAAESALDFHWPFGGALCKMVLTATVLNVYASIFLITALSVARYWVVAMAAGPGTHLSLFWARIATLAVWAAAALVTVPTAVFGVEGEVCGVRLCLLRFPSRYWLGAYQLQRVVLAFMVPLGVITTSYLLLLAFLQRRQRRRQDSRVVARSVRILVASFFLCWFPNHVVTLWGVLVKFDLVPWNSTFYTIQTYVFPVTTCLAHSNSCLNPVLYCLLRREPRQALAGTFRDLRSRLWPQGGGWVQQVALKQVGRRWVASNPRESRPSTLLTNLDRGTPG

human GPCR135 [3] = biological target: T1, human GPCR135; experiment: competition with [125I]-relaxin-3 (100 pM), COS-7 membranes with human GPCR135
Procedure: (§1) Different unlabeled peptides were used in the binding assay as the competitors. […] Data represent mean±SEM (n=3).
(§2) Peptides for competition binding studies were added to the binding mix (final volume: 200 μl) in binding buffer [50 mM Tris-HCl, pH 7.5, 5 mM EDTA, 1% bovine serum albumin, 0.1% protease inhibitor cocktails (Sigma)]. The binding mixtures were incubated at room temperature for 1 hour, filtered through GFC plates (Packard) pre-saturated with 0.3% Polyethylenimine (Sigma), and washed with cold washing buffer (50 mM Tris-HCl, pH 7.5, 5 mM EDTA).

human GPCR142 [4] = biological target: T2, human GPCR142; experiment: competition with [125I]-relaxin-3 (100 pM), COS-7 membranes with human GPCR142
Procedure: as §1, §2

human LGR8 = biological target: T3, human LGR8 (human, UniProt Q8WXD0 1-754); experiment: competition with [125I]-INSL3 (100 pM) on live COS-7 cells expressing human LGR8; ND denotes no activity was detected
T3 construct: whole, on cells
T3 sequence (Q8WXD0 whole entry): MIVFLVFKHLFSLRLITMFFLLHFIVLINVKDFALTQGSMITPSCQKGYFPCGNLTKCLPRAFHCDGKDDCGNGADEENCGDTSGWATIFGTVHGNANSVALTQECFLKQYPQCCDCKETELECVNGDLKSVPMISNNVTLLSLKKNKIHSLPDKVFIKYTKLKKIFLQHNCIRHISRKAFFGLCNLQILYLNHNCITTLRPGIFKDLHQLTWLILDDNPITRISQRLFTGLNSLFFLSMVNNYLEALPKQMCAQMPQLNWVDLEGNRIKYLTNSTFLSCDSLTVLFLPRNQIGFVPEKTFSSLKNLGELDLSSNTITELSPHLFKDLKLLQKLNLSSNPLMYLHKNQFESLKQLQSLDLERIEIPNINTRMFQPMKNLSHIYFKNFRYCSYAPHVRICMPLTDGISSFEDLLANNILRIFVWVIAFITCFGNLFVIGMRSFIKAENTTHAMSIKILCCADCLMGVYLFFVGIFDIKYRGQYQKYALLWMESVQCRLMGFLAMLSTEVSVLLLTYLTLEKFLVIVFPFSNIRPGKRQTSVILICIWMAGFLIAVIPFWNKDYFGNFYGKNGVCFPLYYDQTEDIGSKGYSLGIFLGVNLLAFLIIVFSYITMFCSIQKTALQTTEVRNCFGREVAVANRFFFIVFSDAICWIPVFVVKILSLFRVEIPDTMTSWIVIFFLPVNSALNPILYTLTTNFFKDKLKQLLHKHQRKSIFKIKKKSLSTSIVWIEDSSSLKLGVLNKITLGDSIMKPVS
Procedure: as §1
(§3) Radioligand binding assays for LGR7 and LGR8 were performed using live COS-7 cells transiently transfected with LGR7 or LGR8 expression plasmids in 15-cm culture dishes using LipofectAmine (Invitrogen). Two days after transfection, the transfected cells were detached from the 15-cm culture dished using phosphate buffered saline (PBS) plus 10 mM EDTA, seeded into 96-well opaque poly-D-lysine coated culture plates and used for radioligand binding assays. […] [¹²⁵I]-labeled tracer was added in binding reactions at a final concentration of 100 pM in binding buffer containing DMEM plus 50 mM HEPES and 1% bovine serum albumin. […] The binding mixtures were incubated at room temperature for 1 hour. The unbound radioligand was removed by aspiration of the binding buffer. The cells were washed with PBS. The bound radioligand was counted in a scintillation counter (TopCount/NTX). The results were analyzed using Prism 3.0 program (Graphpad, San Diego, Calif.).

human LGR7 [5] = biological target: T4, human LGR7 (human, UniProt Q9HBX9 1-757); experiment: competition with [125I]-relaxin-3 (100 pM) on live COS-7 cells expressing human LGR7; ND denotes no activity was detected
T4 construct: whole, on cells
T4 sequence (looked up): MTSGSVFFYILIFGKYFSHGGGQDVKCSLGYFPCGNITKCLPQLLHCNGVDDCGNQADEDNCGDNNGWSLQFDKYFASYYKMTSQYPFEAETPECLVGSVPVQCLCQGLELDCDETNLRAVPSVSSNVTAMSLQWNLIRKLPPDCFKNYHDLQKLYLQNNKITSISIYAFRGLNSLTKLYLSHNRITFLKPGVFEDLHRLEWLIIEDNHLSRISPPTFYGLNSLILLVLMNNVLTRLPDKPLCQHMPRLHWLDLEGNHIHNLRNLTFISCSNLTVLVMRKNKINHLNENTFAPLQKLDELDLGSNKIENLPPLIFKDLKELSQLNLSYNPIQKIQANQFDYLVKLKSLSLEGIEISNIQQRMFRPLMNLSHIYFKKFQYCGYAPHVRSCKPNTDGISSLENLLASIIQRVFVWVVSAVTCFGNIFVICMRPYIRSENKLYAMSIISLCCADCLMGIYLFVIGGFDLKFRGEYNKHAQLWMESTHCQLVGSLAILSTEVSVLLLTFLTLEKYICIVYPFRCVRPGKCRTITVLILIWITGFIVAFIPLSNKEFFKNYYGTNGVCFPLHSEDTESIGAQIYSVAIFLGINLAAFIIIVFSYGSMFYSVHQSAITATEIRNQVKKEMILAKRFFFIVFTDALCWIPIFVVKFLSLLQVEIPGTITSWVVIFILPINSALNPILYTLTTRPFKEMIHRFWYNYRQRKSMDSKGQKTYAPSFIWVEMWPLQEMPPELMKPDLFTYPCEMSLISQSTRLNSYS
Procedure: as §1, §3

human LGR7 [6] = biological target: T4, human LGR7; experiment: cell-based or functional assay
human LGR7 [7] = biological target: T4, human LGR7; experiment: cell-based or functional assay; remark: listed apart in the source
human GPCR135 [8] = biological target: T1, human GPCR135; experiment: discussion of the radioligand binding results
human LGR7 [9] = biological target: T4, human LGR7; experiment: discussion of the radioligand binding results
human LGR7 [10] = biological target: T4, human LGR7; experiment: radioligand competition, live COS-7 cells with human LGR7
Procedure: as §1, §3

rat GPCR135 [11] = biological target: T5, rat GPCR135 (rat, UniProt Q8BGE9 1-472 (mouse entry)); experiment: radioligand competition, COS-7 membranes; reference rat LGR7
T5 construct: Also tested as the native receptor in rat brain sections; also called rat GPCR135 receptors
T5 chain: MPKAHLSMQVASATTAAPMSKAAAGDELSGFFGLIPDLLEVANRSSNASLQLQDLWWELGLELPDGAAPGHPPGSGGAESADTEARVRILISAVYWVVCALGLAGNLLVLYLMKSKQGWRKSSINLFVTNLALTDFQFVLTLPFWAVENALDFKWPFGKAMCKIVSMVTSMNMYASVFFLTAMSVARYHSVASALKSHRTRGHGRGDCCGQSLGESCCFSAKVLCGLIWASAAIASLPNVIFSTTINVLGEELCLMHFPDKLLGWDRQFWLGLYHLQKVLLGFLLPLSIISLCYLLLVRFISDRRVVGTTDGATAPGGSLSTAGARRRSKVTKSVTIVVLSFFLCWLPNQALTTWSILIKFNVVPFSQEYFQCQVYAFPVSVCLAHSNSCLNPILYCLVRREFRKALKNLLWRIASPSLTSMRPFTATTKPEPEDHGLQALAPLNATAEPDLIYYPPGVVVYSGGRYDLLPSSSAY
Procedure: (§4) The reaction was incubated at room temperature for 1 hour and the membranes were filtered through the 96-well GFC plates (Packard Instrument Co., Meriden, Conn.) using a cell harvester (Packard Instrument Co). The filter was washed with the ice cold washing buffer (50 mM Tris-HCl, pH 7.5). Fifty μl of Microscint 40 (Packard Instrument Co) was added to each well and the plates were counted on a Topcount NTX (Packard Instrument Co). […] The results were analyzed using the PRISM software (GraphPad, San Diego, Calif.).

rat LGR7 = biological target: T6, rat LGR7 (rat, UniProt Q6R6I6 1-758); experiment: competition with [125I]R2 (100 pM), COS-7 membranes with rat LGR7
T6 construct: whole, on cells; Tested as membranes of transfected COS-7 cells; also called rat LGR7 receptors
T6 sequence (looked up): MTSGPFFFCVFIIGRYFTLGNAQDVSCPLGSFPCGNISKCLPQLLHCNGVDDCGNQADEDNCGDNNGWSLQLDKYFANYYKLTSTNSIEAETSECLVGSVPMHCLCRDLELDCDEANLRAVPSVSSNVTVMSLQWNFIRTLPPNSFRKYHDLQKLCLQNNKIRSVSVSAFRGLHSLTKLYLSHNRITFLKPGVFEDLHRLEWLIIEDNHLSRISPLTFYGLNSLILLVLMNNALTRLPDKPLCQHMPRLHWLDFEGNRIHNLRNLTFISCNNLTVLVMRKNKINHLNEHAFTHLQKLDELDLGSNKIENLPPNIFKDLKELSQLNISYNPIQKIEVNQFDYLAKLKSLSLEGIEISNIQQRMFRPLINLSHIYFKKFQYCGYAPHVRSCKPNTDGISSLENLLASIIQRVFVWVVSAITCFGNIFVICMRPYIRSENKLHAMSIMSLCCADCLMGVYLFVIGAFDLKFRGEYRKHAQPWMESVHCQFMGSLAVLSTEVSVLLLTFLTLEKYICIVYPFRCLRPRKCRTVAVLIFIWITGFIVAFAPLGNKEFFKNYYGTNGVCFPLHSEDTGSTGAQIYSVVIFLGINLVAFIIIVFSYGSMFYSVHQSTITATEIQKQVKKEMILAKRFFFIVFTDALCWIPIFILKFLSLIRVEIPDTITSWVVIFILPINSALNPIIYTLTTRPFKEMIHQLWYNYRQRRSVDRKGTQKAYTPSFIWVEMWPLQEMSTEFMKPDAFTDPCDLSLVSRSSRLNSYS
Procedure: as §4

rat GPCR135 [12] = biological target: T5, rat GPCR135; experiment: competition with [125I]-R3 (100 pM), COS-7 membranes with rat GPCR135
Procedure: as §4

human LGR7 [13] = biological target: T4, human LGR7; experiment: competition with [125I]-relaxin-3 (100 pM), live COS-7 cells with human LGR7
Procedure: as §1, §3

rat GPCR135 [14] = biological target: T5, rat GPCR135; experiment: inhibition of [125I]R3/I5 binding sites, quantitative receptor autoradiography, rat cortex
Procedure: (§5) Sections were thawed and dried under a cold air stream and then pre-incubated for 15 min. at room temperature in incubation buffer (20 mM HEPES, pH 7.4, 120 mM NaCl₂, 0.22 mM KH₂PO₄, 1.3 mM CaCl₂, 0.8 mM MgSO₄) by immersing sections in a 400 ml jar. […] After incubation, the excess radioligand was washed off by immersing the slides in the jar containing incubation buffer at 4° C. (3 times 10 min.) followed by a quick immersion in water. […] The imaging plates were scanned using the Fuji Bio-Imaging Analyzer System (BAS-5000, Fuji Medical System, CT) and visualized using ImageGauge V3.12 software (Fuji Medical System, CT).

rat GPCR135 [15] = biological target: T5, rat GPCR135; experiment: inhibition of [125I]R3/I5 binding sites, quantitative receptor autoradiography, rat olfactory bulb
Procedure: as §5

rat GPCR135 [16] = biological target: T5, rat GPCR135; experiment: inhibition of [125I]R3/I5 binding sites, quantitative receptor autoradiography, rat superior colliculus
Procedure: as §5

rat GPCR135 [17] = biological target: T5, rat GPCR135; experiment: competition with [125I]R3 (100 pM), COS-7 membranes with rat GPCR135
Procedure: as §4

B1: human relaxin-3/INSL4 chimeric polypeptide (R3/I4), mature (ligand)
chain: RAAPYGVRLCGREFIRAVIFTCGGSRWFDPFCCEVICDDGTSVKLC
modifications: disulfide (positions not given here); also: two chains (relaxin-3 B-chain, INSL4 A-chain), disulfide-linked, chain break not marked
notes: Mature two-chain peptide: human relaxin-3 B-chain disulfide-linked to human INSL4 A-chain; FLAG tag removed
Human GPCR135 [1]
  EC50, inhibition of forskolin stimulated β-galactosidase expression: > 1000 nM
Human GPCR142 [2]
  EC50, inhibition of forskolin stimulated β-galactosidase expression: > 1000 nM
Human GPCR135 [3]
  IC50: > 1000 nM
Human GPCR142 [4]
  IC50: > 1000 nM
Human LGR8
  binding result: no binding
Human LGR7 [5]
  binding result: no binding (tested: 1 µM)

B2: human relaxin-3/INSL5 chimeric polypeptide (R3/I5), mature (ligand)
chain: RAAPYGVRLCGREFIRAVIFTCGGSRWQDLQTLCCTDGCSMTDLSALC
modifications: disulfide (positions not given here); also: two chains (relaxin-3 B-chain, INSL5 A-chain), disulfide-linked, chain break not marked
notes: Mature two-chain peptide: human relaxin-3 B-chain disulfide-linked to human INSL5 A-chain; FLAG tag removed; the tracer is kept under this same molecule; also called R3/5; I5/R3
Human LGR7 [6]
  EC50, ligand stimulated β-galactosidase expression: ~400 nM
Human GPCR135 [1]
  EC50, inhibition of forskolin stimulated β-galactosidase expression: 0.45 nM
Human GPCR142 [2]
  EC50, inhibition of forskolin stimulated β-galactosidase expression: 0.91 nM
Human LGR7 [7]
  EC50, ligand stimulated β-galactosidase expression: 412 nM
Human GPCR135 [8]
  Kd: ~0.5 nM
Human LGR7 [9]
  Kd: ~500 nM
Human LGR7 [10]
  IC50: ~500 nM
Rat GPCR135 [11]
  fold selectivity over rat LGR7: 800 fold
Rat LGR7
  IC50: > 400 nM
Rat GPCR135 [12]
  IC50: 0.5 nM
Human LGR7 [13]
  IC50: 724 nM
Human GPCR135 [3]
  IC50: 0.68 nM
Human GPCR142 [4]
  IC50: 1.4 nM
Human LGR8
  binding result: no binding

B3: human relaxin-3 (ligand)
chain: RAAPYGVRLCGREFIRAVIFTCGGSRWDVLAGLSSSCCKWGCSKSEISSLC
modifications: disulfide (positions not given here); also: two-chain peptide (A and B chains), disulfide-linked, places not given here
notes: Mature two-chain peptide (A-chain and B-chain, disulfide-linked); It is not clear whether that entry holds the B-chain alone or both chains; also called R3; INSL7
Human LGR7 [6]
  EC50, stimulation of β-galactosidase activity: 1.4 nM
Rat GPCR135 [14]
  IC50: 0.4 nM
Rat GPCR135 [15]
  IC50: 0.3 nM
Rat GPCR135 [16]
  IC50: 0.3 nM

B4: human relaxin (R1) (ligand)
chain: KWKDDVIKLCGRELVRAQIAICGMSTWSRPYVALFEKCCLIGCTKRSLAKYC
notes: also called relaxin-1
Rat LGR7
  IC50: 0.2 nM
Rat GPCR135 [17]
  IC50: > 1000 nM
